Results taken from PMC4503265 (The Journal of biological chemistry, 2008).

B1: wild-type dopamine transporter (DAT^WT), no tag named (natural protein, human, UniProt Q01959 1-620, looked up)
chain: MSKSKCSVGLMSSVVAPAKEPNAVGPKEVELILVKEQNGVQLTSSTLTNPRQSPVEAQDRETWGKKIDFLLSVIGFAVDLANVWRFPYLCYKNGGGAFLVPYLLFMVIAGMPLFYMELALGQFNREGAAGVWKICPILKGVGFTVILISLYVGFFYNVIIAWALHYLFSSFTTELPWIHCNNSWNSPNCSDAHPGDSSGDSSGLNDTFGTTPAAEYFERGVLHLHQSHGIDDLGPPRWQLTACLVLVIVLLYFSLWKGVKTSGKVVWITATMPYVVLTALLLRGVTLPGAIDGIRAYLSVDFYRLCEASVWIDAATQVCFSLGVGFGVLIAFSSYNKFTNNCYRDAIVTTSINSLTSFSSGFVVFSFLGYMAQKHSVPIGDVAKDGPGLIFIIYPEAIATLPLSSAWAVVFFIMLLTLGIDSAMGGMESVITGLIDEFQLLHRHRELFTLFIVLATFLLSLFCVTNGGIYVFTLLDHFAAGTSILFGVLIEAIGVAWFYGVGQFSDDIQQMTGQRPSLYWRLCWKLVSPCFLLFVVVVSIVTFRPPHYGAYIFPDWANALGWVIATSSMAMVPIYAAYKFCSLPGSFREKLAYAIAPEKDRELVDRGEVRQFTLRHWLKV
B2: His-tagged wild-type dopamine transporter (His-DAT^WT) (natural protein, human, UniProt Q01959 1-620, looked up)
chain: MSKSKCSVGLMSSVVAPAKEPNAVGPKEVELILVKEQNGVQLTSSTLTNPRQSPVEAQDRETWGKKIDFLLSVIGFAVDLANVWRFPYLCYKNGGGAFLVPYLLFMVIAGMPLFYMELALGQFNREGAAGVWKICPILKGVGFTVILISLYVGFFYNVIIAWALHYLFSSFTTELPWIHCNNSWNSPNCSDAHPGDSSGDSSGLNDTFGTTPAAEYFERGVLHLHQSHGIDDLGPPRWQLTACLVLVIVLLYFSLWKGVKTSGKVVWITATMPYVVLTALLLRGVTLPGAIDGIRAYLSVDFYRLCEASVWIDAATQVCFSLGVGFGVLIAFSSYNKFTNNCYRDAIVTTSINSLTSFSSGFVVFSFLGYMAQKHSVPIGDVAKDGPGLIFIIYPEAIATLPLSSAWAVVFFIMLLTLGIDSAMGGMESVITGLIDEFQLLHRHRELFTLFIVLATFLLSLFCVTNGGIYVFTLLDHFAAGTSILFGVLIEAIGVAWFYGVGQFSDDIQQMTGQRPSLYWRLCWKLVSPCFLLFVVVVSIVTFRPPHYGAYIFPDWANALGWVIATSSMAMVPIYAAYKFCSLPGSFREKLAYAIAPEKDRELVDRGEVRQFTLRHWLKV
B3: Myc-tagged wild-type glycine transporter 2 (Myc-GlyT2^WT) (natural protein, mouse, UniProt Q761V0 1-799, looked up)
chain: MDCSAPKEMNKQPANILEAAVPGHRDSPRAPRTSPEQDLPAEAPAATVQPPRVPRSASTGAQTFQSADARACEAQQSGVGFCNLSSPRAQATSAALRDLSEGHSAQANPPSGPAGAGNALHCKIPALRGPEEDANVSVGKGTLEHNNTPAVGWVNMSQSTVVLGTDGIASVLPGSVATTTIPEDEQGDENKARGNWSSKLDFILSMVGYAVGLGNVWRFPYLAFQNGGGAFLIPYLMMLALAGLPIFFLEVSLGQFASQGPVSVWKAIPALQGCGIAMLIISVLIAIYYNVIICYTLFYLFASFVSVLPWGSCNNPWNTPECKDKTKLLLDSCVIGDHPKIQIKNSTFCMTAYPNLTMVNFTSQTNKTFVSGSEEYFKYFVLKISAGIEYPGEIRWPLAFCLFLAWVIVYASLAKGIKSSGKVVYFTATFPYVVLVILLIRGVTLPGAGAGIWYFITPKWEKLTDATVWKDAATQIFFSLSAAWGGLITLSSYNKFHNNCYRDTLIVTCTNSATSIFAGFVIFSVIGFMANERKVNIENVADQGPGIAFVVYPEALTRLPLSPFWAIIFFLMLLTLGLDTMFATIETIVTSISDEFPKYLRTHKPVFTLGCCICFFIMGFPMITQGGIYMFQLVDTYAASYALVIIAIFELVGISYVYGLQRFCEDIEMMIGFKPNIFWKVCWAFVTPTILTFILCFSFYQWEPMTYGSYRYPNWSMVLGWLMLACSVIWIPIMFVIKMYLAPGRFIERLKLVCSPQPDWGPFLAQHRGERYKNMIDPLGTSSLGLKLPVKDLELGTQC
B4: GlyT2^T464C (no tag named) (natural protein, mouse, UniProt Q761V0 1-799, looked up)
chain: MDCSAPKEMNKQPANILEAAVPGHRDSPRAPRTSPEQDLPAEAPAATVQPPRVPRSASTGAQTFQSADARACEAQQSGVGFCNLSSPRAQATSAALRDLSEGHSAQANPPSGPAGAGNALHCKIPALRGPEEDANVSVGKGTLEHNNTPAVGWVNMSQSTVVLGTDGIASVLPGSVATTTIPEDEQGDENKARGNWSSKLDFILSMVGYAVGLGNVWRFPYLAFQNGGGAFLIPYLMMLALAGLPIFFLEVSLGQFASQGPVSVWKAIPALQGCGIAMLIISVLIAIYYNVIICYTLFYLFASFVSVLPWGSCNNPWNTPECKDKTKLLLDSCVIGDHPKIQIKNSTFCMTAYPNLTMVNFTSQTNKTFVSGSEEYFKYFVLKISAGIEYPGEIRWPLAFCLFLAWVIVYASLAKGIKSSGKVVYFTATFPYVVLVILLIRGVTLPGAGAGIWYFITPKWEKLCDATVWKDAATQIFFSLSAAWGGLITLSSYNKFHNNCYRDTLIVTCTNSATSIFAGFVIFSVIGFMANERKVNIENVADQGPGIAFVVYPEALTRLPLSPFWAIIFFLMLLTLGLDTMFATIETIVTSISDEFPKYLRTHKPVFTLGCCICFFIMGFPMITQGGIYMFQLVDTYAASYALVIIAIFELVGISYVYGLQRFCEDIEMMIGFKPNIFWKVCWAFVTPTILTFILCFSFYQWEPMTYGSYRYPNWSMVLGWLMLACSVIWIPIMFVIKMYLAPGRFIERLKLVCSPQPDWGPFLAQHRGERYKNMIDPLGTSSLGLKLPVKDLELGTQC
B5: His-GlyT2^T464C expressed in Xenopus laevis oocytes (natural protein, mouse, UniProt Q761V0 1-799, looked up)
chain: MDCSAPKEMNKQPANILEAAVPGHRDSPRAPRTSPEQDLPAEAPAATVQPPRVPRSASTGAQTFQSADARACEAQQSGVGFCNLSSPRAQATSAALRDLSEGHSAQANPPSGPAGAGNALHCKIPALRGPEEDANVSVGKGTLEHNNTPAVGWVNMSQSTVVLGTDGIASVLPGSVATTTIPEDEQGDENKARGNWSSKLDFILSMVGYAVGLGNVWRFPYLAFQNGGGAFLIPYLMMLALAGLPIFFLEVSLGQFASQGPVSVWKAIPALQGCGIAMLIISVLIAIYYNVIICYTLFYLFASFVSVLPWGSCNNPWNTPECKDKTKLLLDSCVIGDHPKIQIKNSTFCMTAYPNLTMVNFTSQTNKTFVSGSEEYFKYFVLKISAGIEYPGEIRWPLAFCLFLAWVIVYASLAKGIKSSGKVVYFTATFPYVVLVILLIRGVTLPGAGAGIWYFITPKWEKLCDATVWKDAATQIFFSLSAAWGGLITLSSYNKFHNNCYRDTLIVTCTNSATSIFAGFVIFSVIGFMANERKVNIENVADQGPGIAFVVYPEALTRLPLSPFWAIIFFLMLLTLGLDTMFATIETIVTSISDEFPKYLRTHKPVFTLGCCICFFIMGFPMITQGGIYMFQLVDTYAASYALVIIAIFELVGISYVYGLQRFCEDIEMMIGFKPNIFWKVCWAFVTPTILTFILCFSFYQWEPMTYGSYRYPNWSMVLGWLMLACSVIWIPIMFVIKMYLAPGRFIERLKLVCSPQPDWGPFLAQHRGERYKNMIDPLGTSSLGLKLPVKDLELGTQC
B6: His- or Myc-tagged GlyT2^T464C (natural protein, mouse, UniProt Q761V0 1-799, looked up)
chain: MDCSAPKEMNKQPANILEAAVPGHRDSPRAPRTSPEQDLPAEAPAATVQPPRVPRSASTGAQTFQSADARACEAQQSGVGFCNLSSPRAQATSAALRDLSEGHSAQANPPSGPAGAGNALHCKIPALRGPEEDANVSVGKGTLEHNNTPAVGWVNMSQSTVVLGTDGIASVLPGSVATTTIPEDEQGDENKARGNWSSKLDFILSMVGYAVGLGNVWRFPYLAFQNGGGAFLIPYLMMLALAGLPIFFLEVSLGQFASQGPVSVWKAIPALQGCGIAMLIISVLIAIYYNVIICYTLFYLFASFVSVLPWGSCNNPWNTPECKDKTKLLLDSCVIGDHPKIQIKNSTFCMTAYPNLTMVNFTSQTNKTFVSGSEEYFKYFVLKISAGIEYPGEIRWPLAFCLFLAWVIVYASLAKGIKSSGKVVYFTATFPYVVLVILLIRGVTLPGAGAGIWYFITPKWEKLCDATVWKDAATQIFFSLSAAWGGLITLSSYNKFHNNCYRDTLIVTCTNSATSIFAGFVIFSVIGFMANERKVNIENVADQGPGIAFVVYPEALTRLPLSPFWAIIFFLMLLTLGLDTMFATIETIVTSISDEFPKYLRTHKPVFTLGCCICFFIMGFPMITQGGIYMFQLVDTYAASYALVIIAIFELVGISYVYGLQRFCEDIEMMIGFKPNIFWKVCWAFVTPTILTFILCFSFYQWEPMTYGSYRYPNWSMVLGWLMLACSVIWIPIMFVIKMYLAPGRFIERLKLVCSPQPDWGPFLAQHRGERYKNMIDPLGTSSLGLKLPVKDLELGTQC

Columns and labels:
[1] = target: the molecule itself; test: cross-linking
[2] = target: the molecule itself; test: SDS-resistant band in nonreducing SDS-PAGE with Western blot
[3] = target: the molecule itself; test: cross-linking; remark: listed apart in the source
[4] = target: the molecule itself; test: pull-down

Row | Protein | stoichiometry N [1] | also measured
1 | B1 | 2 | 
2 | B2 | 2 | 
3 | B3 |  | stoichiometry N [2]: 2
4 | B4 | 2 | 
5 | B5 |  | stoichiometry N [3]: 2
6 | B6 |  | stoichiometry N [4]: 2
